According to US20100272723A1 (Xencor, published 2010):

Molecular target: T1, human CD19 (human, UniProt P15391 20-556)
T1 construct: also called B-cell surface antigen B4; B-cell antigen CD19
T1 sequence: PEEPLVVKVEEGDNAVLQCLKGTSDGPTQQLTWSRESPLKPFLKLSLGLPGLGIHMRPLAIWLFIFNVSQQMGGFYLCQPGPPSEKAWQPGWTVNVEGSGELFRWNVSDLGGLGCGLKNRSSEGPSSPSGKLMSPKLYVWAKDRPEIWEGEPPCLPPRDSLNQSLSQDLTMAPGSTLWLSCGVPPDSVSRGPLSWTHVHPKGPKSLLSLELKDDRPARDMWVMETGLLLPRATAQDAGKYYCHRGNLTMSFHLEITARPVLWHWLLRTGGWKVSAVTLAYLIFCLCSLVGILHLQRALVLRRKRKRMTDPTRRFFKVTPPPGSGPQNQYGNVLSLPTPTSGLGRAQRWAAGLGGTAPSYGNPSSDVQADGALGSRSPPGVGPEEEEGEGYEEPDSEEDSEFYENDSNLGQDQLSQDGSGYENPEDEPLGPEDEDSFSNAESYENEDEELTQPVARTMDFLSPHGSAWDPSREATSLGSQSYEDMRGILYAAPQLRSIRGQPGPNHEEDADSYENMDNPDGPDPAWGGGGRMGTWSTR
Assay: binding affinity relative to the parent H1L1 mAb (Example 5); assay and format not named on the sheet

Binder | Fold change binding [fold]
H1 / L1.3 (antibody, V domains shown, vs H1L1 (Kabat): VL S52Q; also called 4G7 H1_L1.3) VH: EVQLVESGGGLVKPGGSLKLSCAASGYTFTSYVMHWVRQAPGKGLEWIGYINPYNDGTKYNEKFQGRVTISSDKSISTAYMELSSLRSEDTAMYYCARGTYYYGSRVFDYWGQGTLVTVSS VL: DIVMTQSPATLSLSPGERATLSCRSSKSLLNSNGNTYLYWFQQKPGQSPQLLIYRMQNLASGVPDRFSGSGSGTEFTLTISSLEPEDFAVYYCMQHLEYPFTFGAGTKLEIK | 1.85
H1 / L1.46 (antibody, V domains shown, vs H1L1 (Kabat): VL N53H; also called 4G7 H1_L1.46) VH: EVQLVESGGGLVKPGGSLKLSCAASGYTFTSYVMHWVRQAPGKGLEWIGYINPYNDGTKYNEKFQGRVTISSDKSISTAYMELSSLRSEDTAMYYCARGTYYYGSRVFDYWGQGTLVTVSS VL: DIVMTQSPATLSLSPGERATLSCRSSKSLLNSNGNTYLYWFQQKPGQSPQLLIYRMSHLASGVPDRFSGSGSGTEFTLTISSLEPEDFAVYYCMQHLEYPFTFGAGTKLEIK | 1.75
H1 / L1.55 (antibody, V domains shown, vs H1L1 (Kabat): VL N53Y; also called 4G7 H1_L1.55) VH: EVQLVESGGGLVKPGGSLKLSCAASGYTFTSYVMHWVRQAPGKGLEWIGYINPYNDGTKYNEKFQGRVTISSDKSISTAYMELSSLRSEDTAMYYCARGTYYYGSRVFDYWGQGTLVTVSS VL: DIVMTQSPATLSLSPGERATLSCRSSKSLLNSNGNTYLYWFQQKPGQSPQLLIYRMSYLASGVPDRFSGSGSGTEFTLTISSLEPEDFAVYYCMQHLEYPFTFGAGTKLEIK | 1.58
H1 / L1.8 (antibody, V domains shown, vs H1L1 (Kabat): VL S52K; also called 4G7 H1_L1.8) VH: EVQLVESGGGLVKPGGSLKLSCAASGYTFTSYVMHWVRQAPGKGLEWIGYINPYNDGTKYNEKFQGRVTISSDKSISTAYMELSSLRSEDTAMYYCARGTYYYGSRVFDYWGQGTLVTVSS VL: DIVMTQSPATLSLSPGERATLSCRSSKSLLNSNGNTYLYWFQQKPGQSPQLLIYRMKNLASGVPDRFSGSGSGTEFTLTISSLEPEDFAVYYCMQHLEYPFTFGAGTKLEIK | 2.18
H1 / L1.26 (antibody, V domains shown, vs H1L1 (Kabat): VL L27cQ; also called 4G7 H1_L1.26) VH: EVQLVESGGGLVKPGGSLKLSCAASGYTFTSYVMHWVRQAPGKGLEWIGYINPYNDGTKYNEKFQGRVTISSDKSISTAYMELSSLRSEDTAMYYCARGTYYYGSRVFDYWGQGTLVTVSS VL: DIVMTQSPATLSLSPGERATLSCRSSKSLQNSNGNTYLYWFQQKPGQSPQLLIYRMSNLASGVPDRFSGSGSGTEFTLTISSLEPEDFAVYYCMQHLEYPFTFGAGTKLEIK | 1.73
H1 / L1.64 (antibody, V domains shown, vs H1L1 (Kabat): VL F96I; also called 4G7 H1_L1.64) VH: EVQLVESGGGLVKPGGSLKLSCAASGYTFTSYVMHWVRQAPGKGLEWIGYINPYNDGTKYNEKFQGRVTISSDKSISTAYMELSSLRSEDTAMYYCARGTYYYGSRVFDYWGQGTLVTVSS VL: DIVMTQSPATLSLSPGERATLSCRSSKSLLNSNGNTYLYWFQQKPGQSPQLLIYRMSNLASGVPDRFSGSGSGTEFTLTISSLEPEDFAVYYCMQHLEYPITFGAGTKLEIK | 1.8
H1 / L1.32 (antibody, V domains shown, vs H1L1 (Kabat): VL S27eV; also called 4G7 H1_L1.32) VH: EVQLVESGGGLVKPGGSLKLSCAASGYTFTSYVMHWVRQAPGKGLEWIGYINPYNDGTKYNEKFQGRVTISSDKSISTAYMELSSLRSEDTAMYYCARGTYYYGSRVFDYWGQGTLVTVSS VL: DIVMTQSPATLSLSPGERATLSCRSSKSLLNVNGNTYLYWFQQKPGQSPQLLIYRMSNLASGVPDRFSGSGSGTEFTLTISSLEPEDFAVYYCMQHLEYPFTFGAGTKLEIK | 2.61
H1 / L1.9 (antibody, V domains shown, vs H1L1 (Kabat): VL S52L; also called 4G7 H1_L1.9) VH: EVQLVESGGGLVKPGGSLKLSCAASGYTFTSYVMHWVRQAPGKGLEWIGYINPYNDGTKYNEKFQGRVTISSDKSISTAYMELSSLRSEDTAMYYCARGTYYYGSRVFDYWGQGTLVTVSS VL: DIVMTQSPATLSLSPGERATLSCRSSKSLLNSNGNTYLYWFQQKPGQSPQLLIYRMLNLASGVPDRFSGSGSGTEFTLTISSLEPEDFAVYYCMQHLEYPFTFGAGTKLEIK | 1.84
H1 / L1.54 (antibody, V domains shown, vs H1L1 (Kabat): VL N53G; also called 4G7 H1_L1.54) VH: EVQLVESGGGLVKPGGSLKLSCAASGYTFTSYVMHWVRQAPGKGLEWIGYINPYNDGTKYNEKFQGRVTISSDKSISTAYMELSSLRSEDTAMYYCARGTYYYGSRVFDYWGQGTLVTVSS VL: DIVMTQSPATLSLSPGERATLSCRSSKSLLNSNGNTYLYWFQQKPGQSPQLLIYRMSGLASGVPDRFSGSGSGTEFTLTISSLEPEDFAVYYCMQHLEYPFTFGAGTKLEIK | 1.5
H1 / L1.17 (antibody, V domains shown, vs H1L1 (Kabat): VL E93T; also called 4G7 H1_L1.17) VH: EVQLVESGGGLVKPGGSLKLSCAASGYTFTSYVMHWVRQAPGKGLEWIGYINPYNDGTKYNEKFQGRVTISSDKSISTAYMELSSLRSEDTAMYYCARGTYYYGSRVFDYWGQGTLVTVSS VL: DIVMTQSPATLSLSPGERATLSCRSSKSLLNSNGNTYLYWFQQKPGQSPQLLIYRMSNLASGVPDRFSGSGSGTEFTLTISSLEPEDFAVYYCMQHLTYPFTFGAGTKLEIK | 1.57

Molecular target: T1, human CD19
Assay: as above
Remark: another data set of the same source

Binder | Fold change binding [fold]
H1.201 / L1.161 (antibody, V domains shown, vs H1L1 (Kabat): VH D55S/S100cT; VL L27cQ/S27eV/G29S/A55N/F96I; also called 4G7 H1.201_L1.161) VH: EVQLVESGGGLVKPGGSLKLSCAASGYTFTSYVMHWVRQAPGKGLEWIGYINPYNSGTKYNEKFQGRVTISSDKSISTAYMELSSLRSEDTAMYYCARGTYYYGTRVFDYWGQGTLVTVSS VL: DIVMTQSPATLSLSPGERATLSCRSSKSLQNVNSNTYLYWFQQKPGQSPQLLIYRMSNLNSGVPDRFSGSGSGTEFTLTISSLEPEDFAVYYCMQHLEYPITFGAGTKLEIK | 3.89
H1.203 / L1.160 (antibody, V domains shown, vs H1L1 (Kabat): VH D55S/K58E/S100cT; VL L27cQ/S27eV/G29A/A55N/F96I; also called 4G7 H1.203_L1.160) VH: EVQLVESGGGLVKPGGSLKLSCAASGYTFTSYVMHWVRQAPGKGLEWIGYINPYNSGTEYNEKFQGRVTISSDKSISTAYMELSSLRSEDTAMYYCARGTYYYGTRVFDYWGQGTLVTVSS VL: DIVMTQSPATLSLSPGERATLSCRSSKSLQNVNANTYLYWFQQKPGQSPQLLIYRMSNLNSGVPDRFSGSGSGTEFTLTISSLEPEDFAVYYCMQHLEYPITFGAGTKLEIK | 1.76
H1.204 / L1.160 (antibody, V domains shown, vs H1L1 (Kabat): VH D55E/K58E/S100cT; VL L27cQ/S27eV/G29A/A55N/F96I; also called 4G7 H1.204_L1.160) VH: EVQLVESGGGLVKPGGSLKLSCAASGYTFTSYVMHWVRQAPGKGLEWIGYINPYNEGTEYNEKFQGRVTISSDKSISTAYMELSSLRSEDTAMYYCARGTYYYGTRVFDYWGQGTLVTVSS VL: DIVMTQSPATLSLSPGERATLSCRSSKSLQNVNANTYLYWFQQKPGQSPQLLIYRMSNLNSGVPDRFSGSGSGTEFTLTISSLEPEDFAVYYCMQHLEYPITFGAGTKLEIK | 3.46
H1.201 / L1.155 (antibody, V domains shown, vs H1L1 (Kabat): VH D55S/S100cT; VL L27cQ/S27eV/A55N/F96I; also called 4G7 H1.201_L1.155) VH: EVQLVESGGGLVKPGGSLKLSCAASGYTFTSYVMHWVRQAPGKGLEWIGYINPYNSGTKYNEKFQGRVTISSDKSISTAYMELSSLRSEDTAMYYCARGTYYYGTRVFDYWGQGTLVTVSS VL: DIVMTQSPATLSLSPGERATLSCRSSKSLQNVNGNTYLYWFQQKPGQSPQLLIYRMSNLNSGVPDRFSGSGSGTEFTLTISSLEPEDFAVYYCMQHLEYPITFGAGTKLEIK | 4.48
H1.203 / L1.161 (antibody, V domains shown, vs H1L1 (Kabat): VH D55S/K58E/S100cT; VL L27cQ/S27eV/G29S/A55N/F96I; also called 4G7 H1.203_L1.161) VH: EVQLVESGGGLVKPGGSLKLSCAASGYTFTSYVMHWVRQAPGKGLEWIGYINPYNSGTEYNEKFQGRVTISSDKSISTAYMELSSLRSEDTAMYYCARGTYYYGTRVFDYWGQGTLVTVSS VL: DIVMTQSPATLSLSPGERATLSCRSSKSLQNVNSNTYLYWFQQKPGQSPQLLIYRMSNLNSGVPDRFSGSGSGTEFTLTISSLEPEDFAVYYCMQHLEYPITFGAGTKLEIK | 2.92
H1.202 / L1.160 (antibody, V domains shown, vs H1L1 (Kabat): VH D55E/S100cT; VL L27cQ/S27eV/G29A/A55N/F96I; also called 4G7 H1.202_L1.160) VH: EVQLVESGGGLVKPGGSLKLSCAASGYTFTSYVMHWVRQAPGKGLEWIGYINPYNEGTKYNEKFQGRVTISSDKSISTAYMELSSLRSEDTAMYYCARGTYYYGTRVFDYWGQGTLVTVSS VL: DIVMTQSPATLSLSPGERATLSCRSSKSLQNVNANTYLYWFQQKPGQSPQLLIYRMSNLNSGVPDRFSGSGSGTEFTLTISSLEPEDFAVYYCMQHLEYPITFGAGTKLEIK | 3.96
H1.201 / L1.160 (antibody, V domains shown, vs H1L1 (Kabat): VH D55S/S100cT; VL L27cQ/S27eV/G29A/A55N/F96I; also called 4G7 H1.201_L1.160) VH: EVQLVESGGGLVKPGGSLKLSCAASGYTFTSYVMHWVRQAPGKGLEWIGYINPYNSGTKYNEKFQGRVTISSDKSISTAYMELSSLRSEDTAMYYCARGTYYYGTRVFDYWGQGTLVTVSS VL: DIVMTQSPATLSLSPGERATLSCRSSKSLQNVNANTYLYWFQQKPGQSPQLLIYRMSNLNSGVPDRFSGSGSGTEFTLTISSLEPEDFAVYYCMQHLEYPITFGAGTKLEIK | 4.51
H1.203 / L1.155 (antibody, V domains shown, vs H1L1 (Kabat): VH D55S/K58E/S100cT; VL L27cQ/S27eV/A55N/F96I; also called 4G7 H1.203_L1.155) VH: EVQLVESGGGLVKPGGSLKLSCAASGYTFTSYVMHWVRQAPGKGLEWIGYINPYNSGTEYNEKFQGRVTISSDKSISTAYMELSSLRSEDTAMYYCARGTYYYGTRVFDYWGQGTLVTVSS VL: DIVMTQSPATLSLSPGERATLSCRSSKSLQNVNGNTYLYWFQQKPGQSPQLLIYRMSNLNSGVPDRFSGSGSGTEFTLTISSLEPEDFAVYYCMQHLEYPITFGAGTKLEIK | 4.73
H1.202 / L1.161 (antibody, V domains shown, vs H1L1 (Kabat): VH D55E/S100cT; VL L27cQ/S27eV/G29S/A55N/F96I; also called 4G7 H1.202_L1.161) VH: EVQLVESGGGLVKPGGSLKLSCAASGYTFTSYVMHWVRQAPGKGLEWIGYINPYNEGTKYNEKFQGRVTISSDKSISTAYMELSSLRSEDTAMYYCARGTYYYGTRVFDYWGQGTLVTVSS VL: DIVMTQSPATLSLSPGERATLSCRSSKSLQNVNSNTYLYWFQQKPGQSPQLLIYRMSNLNSGVPDRFSGSGSGTEFTLTISSLEPEDFAVYYCMQHLEYPITFGAGTKLEIK | 4.3
